We go through six molecules from publication PMC12808100 (Nature Communications, 2025).

*: point of attachment. Biotin = O=C1N[C@H]2[C@H](CS[C@H]2CCCCC(=O)*)N1; TTDS = Trioxatridecan-succinamic acid linker

T1: EPS15 (human (endogenous in Jurkat), UniProt P42566 1-896)
T1 construct: EPS15, EH protein with three EH domains, endogenous in Jurkat E6.1 extract, detected by western blot with an EPS15 antibody; also called endogenous EPS15; EH protein with three EH domains; source: endogenous, total Jurkat extract
T1 sequence (looked up): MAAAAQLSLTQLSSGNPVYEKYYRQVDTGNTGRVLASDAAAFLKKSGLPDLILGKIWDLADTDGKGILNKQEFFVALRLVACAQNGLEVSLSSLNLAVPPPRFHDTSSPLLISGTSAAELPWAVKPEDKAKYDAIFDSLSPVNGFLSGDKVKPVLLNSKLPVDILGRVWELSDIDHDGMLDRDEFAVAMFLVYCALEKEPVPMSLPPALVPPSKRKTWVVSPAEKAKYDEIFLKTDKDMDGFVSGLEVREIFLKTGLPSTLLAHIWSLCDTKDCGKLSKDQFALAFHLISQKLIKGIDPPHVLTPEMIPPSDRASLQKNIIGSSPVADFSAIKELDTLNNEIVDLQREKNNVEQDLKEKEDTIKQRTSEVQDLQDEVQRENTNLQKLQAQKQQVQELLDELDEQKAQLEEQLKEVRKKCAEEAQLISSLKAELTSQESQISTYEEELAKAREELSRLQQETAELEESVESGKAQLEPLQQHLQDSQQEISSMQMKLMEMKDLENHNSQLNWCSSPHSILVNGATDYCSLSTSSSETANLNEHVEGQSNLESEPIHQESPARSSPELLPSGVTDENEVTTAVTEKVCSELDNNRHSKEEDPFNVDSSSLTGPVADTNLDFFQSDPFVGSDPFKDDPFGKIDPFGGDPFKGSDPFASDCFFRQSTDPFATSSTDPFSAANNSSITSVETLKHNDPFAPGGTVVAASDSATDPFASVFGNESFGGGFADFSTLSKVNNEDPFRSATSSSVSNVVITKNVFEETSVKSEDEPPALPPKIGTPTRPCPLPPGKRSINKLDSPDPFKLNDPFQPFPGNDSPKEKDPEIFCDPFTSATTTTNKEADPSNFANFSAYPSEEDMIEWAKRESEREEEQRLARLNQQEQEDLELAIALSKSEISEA

B1: HA-WDHD1, full length, NPF motif mutated to KAF (natural protein, human, UniProt O75717 1-1129, looked up)
chain: MPATRKPMRYGHTEGHTEVCFDDSGSFIVTCGSDGDVRIWEDLDDDDPKFINVGEKAYSCALKSGKLVTAVSNNTIQVHTFPEGVPDGILTRFTTNANHVVFNGDGTKIAAGSSDFLVKIVDVMDSSQQKTFRGHDAPVLSLSFDPKDIFLASASCDGSVRVWQISDQTCAISWPLLQKCNDVINAKSICRLAWQPKSGKLLAIPVEKSVKLYRRESWSHQFDLSDNFISQTLNIVTWSPCGQYLAAGSINGLIIVWNVETKDCMERVKHEKGYAICGLAWHPTCGRISYTDAEGNLGLLENVCDPSGKTSSSKVSSRVEKDYNDLFDGDDMSNAGDFLNDNAVEIPSFSKGIINDDEDDEDLMMASGRPRQRSHILEDDENSVDISMLKTGSSLLKEEEEDGQEGSIHNLPLVTSQRPFYDGPMPTPRQKPFQSGSTPLHLTHRFMVWNSIGIIRCYNDEQDNAIDVEFHDTSIHHATHLSNTLNYTIADLSHEAILLACESTDELASKLHCLHFSSWDSSKEWIIDLPQNEDIEAICLGQGWAAAATSALLLRLFTIGGVQKEVFSLAGPVVSMAGHGEQLFIVYHRGTGFDGDQCLGVQLLELGKKKKQILHGDPLPLTRKSYLAWIGFSAEGTPCYVDSEGIVRMLNRGLGNTWTPICNTREHCKGKSDHYWVVGIHENPQQLRCIPCKGSRFPPTLPRPAVAILSFKLPYCQIATEKGQMEEQFWRSVIFHNHLDYLAKNGYEYEESTKNQATKEQQELLMKMLALSCKLEREFRCVELADLMTQNAVNLAIKYASRSRKLILAQKLSELAVEKAAELTATQVEEEEEEEDFRKKLNAGYSNTATEWSQPRFRNQVEEDAEDSGEADDEEKPEIHKPGQNSFSKSTNSSDVSAKSGAVTFSSQGRVKAFKVSASSKEPAMSMNSARSTNILDNMGKSSKKSTALSRTTNNEKSPIIKPLIPKPKPKQASAASYFQKRNSQTNKTEEVKEENLKNVLSETPAICPPQNTENQRPKTGFQMWLEENRSNILSDNPDFSDEADIIKEGMIRFRVLSTEERKVWANKAKGETASEGTEAKKRKRVVDESDETENQEEKAKENLNLSKKQKPLDFSTNQKLSAFAFKQE
notes: WDHD1, residues 1-1129; also called WDHD1 mutant; source: HEK293T, transfected, in cell extract; not shown: HA, N-terminal, kept
B2: NPF motif peptide of SYNJ1 (residues 1390-1421) (peptide)
peptide: RSSPNPFITGLTRTNPFSDRTAAPGNPFRAKS
HELM: PEPTIDE1{[O=C1N[C@H]2[C@H](CS[C@H]2CCCCC(=O)[*:2])N1].[O=C(CCCCCN[*:1])[*:2]].R.S.S.P.N.P.F.I.T.G.L.T.R.T.N.P.F.S.D.R.T.A.A.P.G.N.P.F.R.A.K.S.[am]}$$$$V2.0
SMILES: CC[C@H](C)[C@H](NC(=O)[C@H](Cc1ccccc1)NC(=O)[C@@H]1CCCN1C(=O)[C@H](CC(N)=O)NC(=O)[C@@H]1CCCN1C(=O)[C@H](CO)NC(=O)[C@H](CO)NC(=O)[C@H](CCCNC(=N)N)NC(=O)CCCCCNC(=O)CCCC[C@@H]1SC[C@@H]2NC(=O)N[C@@H]21)C(=O)N[C@H](C(=O)NCC(=O)N[C@@H](CC(C)C)C(=O)N[C@H](C(=O)N[C@@H](CCCNC(=N)N)C(=O)N[C@H](C(=O)N[C@@H](CC(N)=O)C(=O)N1CCC[C@H]1C(=O)N[C@@H](Cc1ccccc1)C(=O)N[C@@H](CO)C(=O)N[C@@H](CC(=O)O)C(=O)N[C@@H](CCCNC(=N)N)C(=O)N[C@H](C(=O)N[C@@H](C)C(=O)N[C@@H](C)C(=O)N1CCC[C@H]1C(=O)NCC(=O)N[C@@H](CC(N)=O)C(=O)N1CCC[C@H]1C(=O)N[C@@H](Cc1ccccc1)C(=O)N[C@@H](CCCNC(=N)N)C(=O)N[C@@H](C)C(=O)N[C@@H](CCCCN)C(=O)N[C@@H](CO)C(N)=O)[C@@H](C)O)[C@@H](C)O)[C@@H](C)O)[C@@H](C)O
notes: SYNJ1, residues 1390-1421, contains three NPF motifs; also called SYNJ1_1390-1421; triple motif of SYNJ1; source: synthetic peptide; bought: Synpeptide
B3: DONSON-SYNJ1 chimera peptide, C-terminal flank replaced (peptide)
chain: GPAAARRNPFSDRDNRPR
HELM: PEPTIDE1{[O=C1N[C@H]2[C@H](CS[C@H]2CCCCC(=O)[*:2])N1].[O=C(CCCCCN[*:1])[*:2]].G.P.A.A.A.R.R.N.P.F.S.D.R.D.N.R.P.R.[am]}$$$$V2.0
SMILES: C[C@H](NC(=O)[C@H](C)NC(=O)[C@@H]1CCCN1C(=O)CNC(=O)CCCCCNC(=O)CCCC[C@@H]1SC[C@@H]2NC(=O)N[C@@H]21)C(=O)N[C@@H](C)C(=O)N[C@@H](CCCNC(=N)N)C(=O)N[C@@H](CCCNC(=N)N)C(=O)N[C@@H](CC(N)=O)C(=O)N1CCC[C@H]1C(=O)N[C@@H](Cc1ccccc1)C(=O)N[C@@H](CO)C(=O)N[C@@H](CC(=O)O)C(=O)N[C@@H](CCCNC(=N)N)C(=O)N[C@@H](CC(=O)O)C(=O)N[C@@H](CC(N)=O)C(=O)N[C@@H](CCCNC(=N)N)C(=O)N1CCC[C@H]1C(=O)N[C@@H](CCCNC(=N)N)C(N)=O
B4: DONSON-SYNJ1 chimera peptide, N-terminal flank replaced (peptide)
chain: GPAATRTNPFARLDNRPR
HELM: PEPTIDE1{[O=C1N[C@H]2[C@H](CS[C@H]2CCCCC(=O)[*:2])N1].[O=C(CCCCCN[*:1])[*:2]].G.P.A.A.T.R.T.N.P.F.A.R.L.D.N.R.P.R.[am]}$$$$V2.0
SMILES: CC(C)C[C@H](NC(=O)[C@H](CCCNC(=N)N)NC(=O)[C@H](C)NC(=O)[C@H](Cc1ccccc1)NC(=O)[C@@H]1CCCN1C(=O)[C@H](CC(N)=O)NC(=O)[C@@H](NC(=O)[C@H](CCCNC(=N)N)NC(=O)[C@@H](NC(=O)[C@H](C)NC(=O)[C@H](C)NC(=O)[C@@H]1CCCN1C(=O)CNC(=O)CCCCCNC(=O)CCCC[C@@H]1SC[C@@H]2NC(=O)N[C@@H]21)[C@@H](C)O)[C@@H](C)O)C(=O)N[C@@H](CC(=O)O)C(=O)N[C@@H](CC(N)=O)C(=O)N[C@@H](CCCNC(=N)N)C(=O)N1CCC[C@H]1C(=O)N[C@@H](CCCNC(=N)N)C(N)=O
B5: NPF motif peptide of DONSON (residues 71-88) (peptide)
peptide: {Biotin-TTDS}-GPAAARRNPFARLDNRPR-NH2
notes: Protein downstream neighbor of Son (DONSON), residues 71-88; also called DONSON_71-88; DONSON_718-88 (as printed in the sheet); source: synthetic peptide (ABI 443 A synthesizer, Fmoc strategy)
B6: DONSON-SYNJ1 chimera peptide, both flanks replaced (peptide)
chain: GPAATRTNPFSDRDNRPR
HELM: PEPTIDE1{[O=C1N[C@H]2[C@H](CS[C@H]2CCCCC(=O)[*:2])N1].[O=C(CCCCCN[*:1])[*:2]].G.P.A.A.T.R.T.N.P.F.S.D.R.D.N.R.P.R.[am]}$$$$V2.0
SMILES: C[C@H](NC(=O)[C@H](C)NC(=O)[C@@H]1CCCN1C(=O)CNC(=O)CCCCCNC(=O)CCCC[C@@H]1SC[C@@H]2NC(=O)N[C@@H]21)C(=O)N[C@H](C(=O)N[C@@H](CCCNC(=N)N)C(=O)N[C@H](C(=O)N[C@@H](CC(N)=O)C(=O)N1CCC[C@H]1C(=O)N[C@@H](Cc1ccccc1)C(=O)N[C@@H](CO)C(=O)N[C@@H](CC(=O)O)C(=O)N[C@@H](CCCNC(=N)N)C(=O)N[C@@H](CC(=O)O)C(=O)N[C@@H](CC(N)=O)C(=O)N[C@@H](CCCNC(=N)N)C(=O)N1CCC[C@H]1C(=O)N[C@@H](CCCNC(=N)N)C(N)=O)[C@@H](C)O)[C@@H](C)O

The target of one experiment is T2, His6-AviTag-MBP-TEV-POLE2 (human, UniProt P56282 1-527, biotin on the AviTag (BirA co-expressed, biotin in the medium)).
T2 construct: POLE2, residues 1-527; a TEV site lies between MBP and POLE2; also called His6-avi-MBP-tagged POLE2; avi-His6-MBP-POLE2; source: E. coli BL21(DE3), co-expressed with BirA, purified (HisTrap, MBPtrap, Q HP); not shown: His6, N-terminal, kept; AviTag, N-terminal, kept; MBP, N-terminal, kept
T2 sequence (P56282 whole entry, the tested form may be a part): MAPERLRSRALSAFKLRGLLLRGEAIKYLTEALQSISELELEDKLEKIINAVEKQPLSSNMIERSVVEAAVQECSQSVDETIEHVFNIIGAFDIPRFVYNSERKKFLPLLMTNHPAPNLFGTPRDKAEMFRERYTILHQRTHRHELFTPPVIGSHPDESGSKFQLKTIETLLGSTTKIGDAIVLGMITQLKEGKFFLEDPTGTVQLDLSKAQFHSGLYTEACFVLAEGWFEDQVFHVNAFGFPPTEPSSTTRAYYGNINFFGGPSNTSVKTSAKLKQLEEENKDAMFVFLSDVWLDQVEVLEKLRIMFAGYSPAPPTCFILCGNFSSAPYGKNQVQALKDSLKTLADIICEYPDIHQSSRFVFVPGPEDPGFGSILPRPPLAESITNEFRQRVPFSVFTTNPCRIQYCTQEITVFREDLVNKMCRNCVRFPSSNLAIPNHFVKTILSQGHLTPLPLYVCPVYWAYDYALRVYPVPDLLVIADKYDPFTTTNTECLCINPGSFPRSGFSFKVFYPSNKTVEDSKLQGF
The experiment is described as follows: native holdup (nHU) titration with dot blot; purified His6-avi-MBP-tagged POLE2 as bait on resin; extracts of HEK293T cells transfected with HA-tagged full length proteins; 4 °C, 2 h; anti-HA dot blot; apparent. Conditions: one partner purified.
With B1, the “fold weaker affinity than the wild type” value came to 1000 fold.

In the next experiment the target is T1, EPS15. The experiment is described as follows: native holdup (nHU) titration with western blot; biotinylated peptide bait on streptavidin resin, bait-saturated and control (biotin) resin mixed at various proportions; total Jurkat extract as analyte; 4 °C, 2 h; endogenous POLE and EPS15 left in the supernatant quantified by western blot; apparent dissociation constants. Conditions: one partner purified. In general terms: A western blot detects proteins with antibodies after separation by electrophoresis.
In the case of B2, the Kd stood at 1 µM.
Same read-out and setting: the figure for B3 is more than 20 µM.
For the molecule B4, the Kd is more than 30 µM.
Still for that read-out and setting: as for B5, the figure is more than 60 µM.
Consider B6, for which the Kd was more than 200 µM.
